Laboratory results published in patent CN113461822A.
Changes are numbered by the printed parent chain.

B1: 抗体1 (实施例11; 2D6抗体) (antibody, human IgG1, kappa, V domains shown)
VH: EIQLVQSGSEVVRTGTSVKLSCKASGYRFTSYWMHWVKQRPGQGLEWIGNINPGDGRTNYDENFKNKATLTVDPSSNTAYMQLNSLTSEDSAVYYCTRDGNYGIFDYWGRGTSVTVSS
VL: NIVMTQSPSSLVVSAGEKVTLSCKSSQSLLYSSNQKNYLAWFQQKPGQSPKLLIYWASTRESGVPDRFTGSGSRTDFTLTISSVQAEDMAVYYCHQYIYLWSFGGGSKLEIER
B2: 抗体6 (实施例16) (antibody, human IgG1, kappa, V domains shown)
VH: EVKLVESGGGLVQPGGSRKLSCAASGFTFSSYWMHWVRQAPEKGLEWVANINPGDGRTNYDENFKNRFTISRDNPENTLFLQMTSLTSEDTAIYYCARRAAYGNYDWYFDVWGAGTTVTVSS
VL: B1 VL
B3: 抗体4 (实施例14) (antibody, human IgG1, kappa, V domains shown)
VH: EVKLVESGGGLVQPGGSRKLSCAASGFTFSSYWMHWVRQAPEKGLEWVAYISSGGITIYYADTVKGRFTISRDNPENTLFLQMTSLTSEDTAIYYCARRAAYGNYDWYFDVWGAGTTVTVSS
VL: B1 VL
B4: 抗体5 (实施例15) (antibody, human IgG1, kappa, V domains shown)
VH: B1 VH
VL: B1 VL with N1D, V3E, M4L, E61G, S107T, E112K

Molecular target: Scl-70抗原 (人DNA拓扑异构酶I的C末端片段的70kD分子量蛋白) (human) (UniProt P11387)
Test: chemiluminescence immunoassay on Scl-70-coated magnetic microspheres, ABEI-anti-human IgG; CHO supernatant undiluted

原液RLU	Binder
1.64e+06 RLU	B1
1.08e+06 RLU	B2
2.46e+06 RLU	B3
2e+06 RLU	B4

Molecular target: Scl-70抗原 (人DNA拓扑异构酶I的C末端片段的70kD分子量蛋白) (human) (UniProt P11387)
Test: chemiluminescence immunoassay on Scl-70-coated magnetic microspheres, ABEI-anti-human IgG; CHO supernatant diluted 10-fold

稀释10倍RLU	Binder
1.01e+06 RLU	B1
801000 RLU	B2
1.74e+06 RLU	B3
1.31e+06 RLU	B4

Molecular target: Scl-70抗原 (人DNA拓扑异构酶I的C末端片段的70kD分子量蛋白) (human) (UniProt P11387)
Test: chemiluminescence immunoassay on Scl-70-coated magnetic microspheres, ABEI-anti-human IgG; CHO supernatant diluted 30-fold

稀释30倍RLU	Binder
355000 RLU	B1
329000 RLU	B2
609000 RLU	B3
421000 RLU	B4

Molecular target: Scl-70抗原 (人DNA拓扑异构酶I的C末端片段的70kD分子量蛋白) (human) (UniProt P11387)
Test: chemiluminescence immunoassay on Scl-70-coated magnetic microspheres, ABEI-anti-human IgG; CHO supernatant diluted 50-fold

稀释50倍RLU	Binder
220000 RLU	B1
177000 RLU	B2
379000 RLU	B3
239000 RLU	B4

Molecular target: Scl-70抗原 (人DNA拓扑异构酶I的C末端片段的70kD分子量蛋白) (human) (UniProt P11387)
Test: chemiluminescence immunoassay on Scl-70-coated magnetic microspheres, ABEI-anti-human IgG; CHO supernatant diluted 100-fold

稀释100倍RLU	Binder
140000 RLU	B1
86400 RLU	B2
171000 RLU	B3
129000 RLU	B4

Molecular target: Scl-70抗原 (人DNA拓扑异构酶I的C末端片段的70kD分子量蛋白) (human) (UniProt P11387)
Test: chemiluminescence immunoassay on Scl-70-coated magnetic microspheres, ABEI-anti-human IgG; CHO supernatant diluted 150-fold

稀释150倍RLU	Binder
73100 RLU	B1
57600 RLU	B2
124000 RLU	B3
89300 RLU	B4

Molecular target: Scl-70抗原 (人DNA拓扑异构酶I的C末端片段的70kD分子量蛋白) (human) (UniProt P11387)
Test: chemiluminescence immunoassay on Scl-70-coated magnetic microspheres, ABEI-anti-human IgG; CHO supernatant diluted 200-fold

稀释200倍RLU	Binder
55400 RLU	B1
43500 RLU	B2
85700 RLU	B3
59200 RLU	B4
